B5: Arabidopsis cryptochrome 2 (CRY2) (receptor)
chain: MKMDKKTIVWFRRDLRIEDNPALAAAAHEGSVFPVFIWCPEEEGQFYPGRASRWWMKQSLAHLSQSLKALGSDLTLIKTHNTISAILDCIRVTGATKVVFNHLYDPVSLVRDHTVKEKLVERGISVQSYNGDLLYEPWEIYCEKGKPFTSFNSYWKKCLDMSIESVMLPPPWRLMPITAAAEAIWACSIEELGLENEAEKPSNALLTRAWSPGWSNADKLLNEFIEKQLIDYAKNSKKVVGNSTSLLSPYLHFGEISVRHVFQCARMKQIIWARDKNSEGEESADLFLRGIGLREYSRYICFNFPFTHEQSLLSHLRFFPWDADVDKFKAWRQGRTGYPLVDAGMRELWATGWMHNRIRVIVSSFAVKFLLLPWKWGMKYFWDTLLDADLECDILGWQYISGSIPDGHELDRLDNPALQGAKYDPEGEYIRQWLPELARLPTEWIHHPWDAPLTVLKASGVELGTNYAKPIVDIDTARELLAKAISRTREAQIMIGAAPDEIVADSFEALGANTIKEPGLCPSVSSNDQQVPSAVRYNGSKRVKPEEEEERDMKKSRGFDERELFSTAESSSSSSVFFVSQSCSLASEGKNLEGIQDSSDQITTSLGKNGCK
notes: also called AT1G04400

Experiments:
FLUC-CRY2 (Arabidopsis) = FLUC-CRY2 (Arabidopsis) (UniProt Q96524); assay: quantitative co-IP (dual-luciferase), anti-Flag beads, HEK293T cells, blue light 30 µmol m^-2 s^-1
[1] = target: the molecule itself; assay: co-IP, HEK293T cells, control experiment
Flag-hCRY1 = target: T1, Flag-hCRY1 (human, UniProt Q16526 1-586); assay: co-IP with anti-Flag beads, HEK293T cells (FIG. 11)
T1 construct: this is the CRY1 form; not shown: Flag tag
T1 sequence (looked up): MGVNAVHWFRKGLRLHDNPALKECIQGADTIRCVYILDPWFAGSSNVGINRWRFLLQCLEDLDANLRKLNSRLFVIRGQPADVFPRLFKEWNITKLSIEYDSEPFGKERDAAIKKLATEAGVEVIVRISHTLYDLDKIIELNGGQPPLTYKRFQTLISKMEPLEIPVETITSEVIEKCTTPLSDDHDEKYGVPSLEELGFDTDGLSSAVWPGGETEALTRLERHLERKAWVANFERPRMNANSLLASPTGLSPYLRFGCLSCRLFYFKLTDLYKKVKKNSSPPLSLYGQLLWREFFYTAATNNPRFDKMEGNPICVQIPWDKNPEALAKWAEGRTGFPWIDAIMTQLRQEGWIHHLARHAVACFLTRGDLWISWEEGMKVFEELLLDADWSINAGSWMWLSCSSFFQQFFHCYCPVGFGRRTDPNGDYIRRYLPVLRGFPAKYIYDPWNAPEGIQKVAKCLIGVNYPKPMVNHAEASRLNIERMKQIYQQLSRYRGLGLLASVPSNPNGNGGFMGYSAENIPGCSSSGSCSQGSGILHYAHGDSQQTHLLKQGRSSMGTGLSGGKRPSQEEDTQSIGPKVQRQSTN
Description: In FIG. 11, HEK293T cells coexpressing Flag-hCRY, Myc-hCRY and GFP-BIC1 or GFP were exposed to 100 μmol m⁻² s⁻¹ blue light for 2 hours (+) or kept in the dark (−). Anti-Flag antibody conjugated beads were used to perform the immunoprecipitations. Flag-hCRY (IP signal) and Myc-hCRY or GFP-BIC1 (co-IP signals) were detected by Flag and Myc or GFP antibody, respectively. […]

[2] = target: B5; assay: summary of the examples
Flag-CRY2 = target: T2, Flag-CRY2 (Arabidopsis, UniProt Q96524 1-612); assay: co-IP with antibody to Flag, HEK293T cells, dark
T2 construct: not shown: Flag tag
Description: Homodimers are the physiologically active form of plant CRYs (8, 9), but the effect of light on CRY dimerization has not been detected in previous studies (9, 20). This could be explained by, among other interpretations, light-independent CRY dimerization or masking effects of regulatory proteins, such as BICs, on the light-dependent CRY dimerization (9, 20). We reexamined the bluelight dependence of CRY2 dimerization using multiple approaches. In the first experiment, we coexpressed Flag-CRY2 and Myc-CRY2 in HEK293T cells (21-24) and tested the interaction between the two differentially tagged CRY2s by co-IP assay. In the absence of blue light, antibody to Flag coprecipitated little Myc-CRY2 from HEK293T cells expressing similar amounts of Flag-CRY2 and Myc-CRY2 (FIG. 4B and FIG. S12A of Wang et al).

[3] = target: T3, GFP-CRY2 (CRY2 fused to green fluorescent protein) (Arabidopsis, UniProt Q96524 1-612); assay: co-IP with GFP-Trap-A from etiolated seedlings co-expressing Myc-CRY2 and GFP-CRY2, blue light 20 sec to 10 min (FIG. 9A)
T3 construct: Expressed in Arabidopsis plants together with Myc-CRY2; not shown: green fluorescent protein
Description: GFP-Trap-A were used to immunoprecipitate GFP-CRY2. GFP-CRY2 (IP signal) and Myc-CRY2 (co-IP signal) were detected by GFP or Myc antibody, respectively. […] HEK293T cells co-expressing FLUC-CRY2 and REN-CRY2 were exposed to blue light (30 μmol·m⁻²·s⁻¹) for the time indicated, lysed, aliquots removed for the measurement of ATL (Adjusted Total Luminescence), and FLUC-CRY2 precipitated by anti-Flag antibody conjugated beads. Photodimerization of CRY2 was quantified by the dual-luciferase assay to calculate the Normalized Dimerization Ratio (NDR) by the formula: NDR=[(REN/LUC)L/(REN/LUC)D]/ATL, where LUC is the LUC luminescence detected for the precipitated FLUC-CRY2, REN is the REN luminescence detected for the co-precipitated REN-CRY2. (REN/LUC)L or (REN/LUC)D were measured in cells exposed to light or darkness, respectively. ATL (Adjusted Total Luminescence) is the cell volume-adjusted sum of LUC and REN luminescence of the cell lysates before immunoprecipitation, in which REN luminescence is converted to the LUC equivalent by the standard curve prepared by analyses of the LUC-REN fusion protein (not shown). ATL represents concentration of the CRY2 protein. […] Flag-CRY2 (IP signal) and Myc-CRY2 or GFP-BIC1 (co-IP signals) were detected by Flag and Myc or GFP antibody, respectively. […]

[4] = target: the molecule itself; assay: yeast β-gal assay (FIG. 4A); also immunoblots of HEK293FT lysates (4B, 4C) and plant nuclear proteins (4D, 4E) after blue light
Description: FIG. 4 provides data showing redox-dependent CRY dimerization, and blue-light-induced CRY and BIC interaction. (FIG. 4A) The β-galactosidase (β-gal) assay showing the blue-light-dependent formation of CRY2 dimer. Yeast cells were kept in darkness (D) or illuminated with blue light (B5, 5 μmol m⁻² s⁻¹; B25, 25 μmol m⁻² s⁻¹; B50, 50 μmol m⁻² s⁻¹) for the indicated time. (FIG. 4B) Immunoblot showing the blue-light-induced dimerization of CRY2 expressed in HEK293FT (H293) cells. The cells were lysed, divided into 12 samples and irradiated by blue light (40 μmol m⁻²s⁻¹) for the indicated durations. For β-mercaptoethanol (2-Me) treatment, 6 samples were added with 2-Me to 5% (v/v), and then all the samples were analyzed by western blot using anti-CRY2 antibody. CRY2, monomeric CRY2; (CRY2)2, CRY2 dimer; (CRY2)ₙ, CRY2 oligomer. (FIG. 4C) The H293 cell lysate were prepared in dark, irradiated with blue light for the durations indicated. For the NEM treatment, the samples were added with NEM (50 mM), and then the samples were analyzed by western blot using anti-CRY2 antibody. (FIGS. 4D and E) Dimerization and oligomerization of CRY2 proteins are blue light-induced in vivo. […]

Molecule: REN-CRY2
- Maximum Photodimerization (Dm, maximum Normalized Dimerization Ratio) (FLUC-CRY2 (Arabidopsis)): 4.7
- Rate of Photodimerization (D1/2) (FLUC-CRY2 (Arabidopsis)): 1 min

B1: human cryptochrome 1 (hCRY1) (other, UniProt Q16526 1-586, looked up)
chain: MGVNAVHWFRKGLRLHDNPALKECIQGADTIRCVYILDPWFAGSSNVGINRWRFLLQCLEDLDANLRKLNSRLFVIRGQPADVFPRLFKEWNITKLSIEYDSEPFGKERDAAIKKLATEAGVEVIVRISHTLYDLDKIIELNGGQPPLTYKRFQTLISKMEPLEIPVETITSEVIEKCTTPLSDDHDEKYGVPSLEELGFDTDGLSSAVWPGGETEALTRLERHLERKAWVANFERPRMNANSLLASPTGLSPYLRFGCLSCRLFYFKLTDLYKKVKKNSSPPLSLYGQLLWREFFYTAATNNPRFDKMEGNPICVQIPWDKNPEALAKWAEGRTGFPWIDAIMTQLRQEGWIHHLARHAVACFLTRGDLWISWEEGMKVFEELLLDADWSINAGSWMWLSCSSFFQQFFHCYCPVGFGRRTDPNGDYIRRYLPVLRGFPAKYIYDPWNAPEGIQKVAKCLIGVNYPKPMVNHAEASRLNIERMKQIYQQLSRYRGLGLLASVPSNPNGNGGFMGYSAENIPGCSSSGSCSQGSGILHYAHGDSQQTHLLKQGRSSMGTGLSGGKRPSQEEDTQSIGPKVQRQSTN
notes: Homodimerization tested with differently tagged copies (Flag-hCRY and Myc-hCRY) co-expressed in HEK293T cells; also called human CRY1
- binding result [1]: binds

B2: GFP-BIC1 (other)
chain: MMNIDDTTSPMAHPIGPSQPPSDQTKQDPPSLPQEAASSVSADKKDLALLEEKPKQSQEEDRVDTGRERLKKHRREIAGRVWIPEIWGQEELLKDWIDCSTFDTCLVPAGISSARTALVEEARRAASASGGLHNRCLILR
notes: Expressed in HEK293T cells; not shown: GFP
- binding result (Flag-hCRY1): binds

B3: Blue-light Inhibitor of Cryptochromes 1 (BIC1) (other)
chain: MMNIDDTTSPMAHPIGPSQPPSDQTKQDPPSLPQEAASSVSADKKDLALLEEKPKQSQEEDRVDTGRERLKKHRREIAGRVWIPEIWGQEELLKDWIDCSTFDTCLVPAGISSARTALVEEARRAASASGGLHNRCLILR
notes: also called Arabidopsis BIC1; AT3G52740
- binding result [2]: binds

B4: Myc-CRY2 (other)
chain: MKMDKKTIVWFRRDLRIEDNPALAAAAHEGSVFPVFIWCPEEEGQFYPGRASRWWMKQSLAHLSQSLKALGSDLTLIKTHNTISAILDCIRVTGATKVVFNHLYDPVSLVRDHTVKEKLVERGISVQSYNGDLLYEPWEIYCEKGKPFTSFNSYWKKCLDMSIESVMLPPPWRLMPITAAAEAIWACSIEELGLENEAEKPSNALLTRAWSPGWSNADKLLNEFIEKQLIDYAKNSKKVVGNSTSLLSPYLHFGEISVRHVFQCARMKQIIWARDKNSEGEESADLFLRGIGLREYSRYICFNFPFTHEQSLLSHLRFFPWDADVDKFKAWRQGRTGYPLVDAGMRELWATGWMHNRIRVIVSSFAVKFLLLPWKWGMKYFWDTLLDADLECDILGWQYISGSIPDGHELDRLDNPALQGAKYDPEGEYIRQWLPELARLPTEWIHHPWDAPLTVLKASGVELGTNYAKPIVDIDTARELLAKAISRTREAQIMIGAAPDEIVADSFEALGANTIKEPGLCPSVSSNDQQVPSAVRYNGSKRVKPEEEEERDMKKSRGFDERELFSTAESSSSSSVFFVSQSCSLASEGKNLEGIQDSSDQITTSLGKNGCK
notes: not shown: Myc tag
- binding result (Flag-CRY2): binds
- binding result [3]: binds

Molecule: B5
- binding result [4]: binds

B6: Blue-light Inhibitor of Cryptochromes 2 (BIC2) (other)
chain: MKNTNLPEETKEPISPGSSHRKQNKTGTKTCFPETTVLSGRDRLKRHREEVAGKVPIPDSWGKEGLLMGWMDFSTFDAAFTSSQIVSARAALMADSGDDAGARGSRPQRLRVESSC
notes: also called Arabidopsis BIC2; AT3G44450
- binding result [2]: binds
